According to publication PMC7504044 (International Journal of Molecular Sciences, 2020):

B1: GST–emerin (full-length emerin fused to GST) (natural protein, UniProt P50402 1-254, looked up)
chain: MDNYADLSDTELTTLLRRYNIPHGPVVGSTRRLYEKKIFEYETQRRRLSPPSSSAASSYSFSDLNSTRGDADMYDLPKKEDALLYQSKGYNDDYYEESYFTTRTYGEPESAGPSRAVRQSVTSFPDADAFHHQVHDDDLLSSSEEECKDRERPMYGRDSAYQSITHYRPVSASRSSLDLSYYPTSSSTSFMSSSSSSSSWLTRRAIRPENRAPGAGLGQDRQVPLWGQLLLFLVFVIVLFFIYHFMQAEEGNPF
notes: emerin, full-length; also called pGST–emerin; source: E. coli BL21, purified (glutathione-Sepharose)

Legend:
[1] = biological target: emerin (Caenorhabditis elegans) (UniProt O01971); conditions: cited from earlier work
SPR = biological target: the molecule itself; assay: SPR
[2] = biological target: the molecule itself; assay: SPR; GST–emerin coupled by EDC–NHS to polyethylene glycol/carboxyl sensor slides (Reichert SR7500DC); five increasing concentrations of analyte in PBST at 40 µL/min, 150 s association, 150 s dissociation, no regeneration

Row | Molecule | Kd [1] [nM] | koff (SPR) [s⁻¹] | Kd [2] [nM]
1 | emerin (from UniProt O01971) | 14 |  | 
2 | B1 |  | 0.00154 | 1.87
